This passage reports conductance increase, fold lower than on BLIP2^213azF devices results from publication PMC11362306.

The experiment addresses BLIP2 with azF at residue 41 (BLIP2^41azF). The experiment is described as follows: CNT-FET conductance (I-V); BLIP2 azF variant photochemically attached to p-type SWCNTs of a CNT-FET; BL (or BSA) added in DPBS, to 1.4 μM or stepwise; I-V curves, room temperature; also with 0.5% (w/v) BSA for TEM-1 on BLIP2^213azF.

For the substance “TEM-1 β-lactamase (from UniProt P62593 24-286) (enzyme)”, the conductance increase, fold lower than on BLIP2^213azF devices is 4 fold.
